Test: Thermostability of GDP-bound mini G proteins by differential scanning fluorimetry (DSF)
Type: physicochemical
Settings: 1 mM GDP, SYPRO-orange, no receptor
Protocol: SYPRO-orange (15 μl) was added from a 20× stock solution to give a final concentration of 2×. Samples were mixed and 2×50 μl aliquots (duplicates) were transferred to 0.2 ml PCR tubes (Qiagen). Thermostability measurements were performed using a Rotor-Gene Q (Qiagen). Samples were equilibrated for 90 s at 25° C. before ramping from 25 to 99° C. at 4 s/° C. The melting temperature (Tm), corresponding to the inflection point of the curve, was derived from analysis using the Rotor-Gene Q software. Tm values were calculated as the mean±SEM from three independent experiments.
For constructs see FIGS. 29 and 35-37. Expression, purification and stability measurements by differential scanning fluorimetry (DSF) of the mini-G proteins as well as the non-lipidated Gβ1γ2 dimer, were performed following the protocols described in Example 1. The stability of mini-G proteins was also determined in detergent using native DSF (NanoTemper Prometheus). Mini-G proteins (2 mg/ml) in 50 mM HEPES pH 7.5 (KOH), 20 mM MgCl2, 50 mM NaCl, 1 μM GDP were mixed with either no detergent (control), 0.1% LMNG or 0.1% DDM. Samples were incubated on ice (minimum 30 min) prior to heating on the Prometheus (20% excitation, 15° C.-85° C., rate of 2.0° C./min) and the onset of scattering determined.

| Molecule | Mini Gs basal Tm (GDP-bound state, DSF) |
| --- | --- |
| Mini Gs199: mini Gs, Gly8 linker, switch III deleted, G49D E50N A249D S252D L272D (protein, MINI GS199, mini Gs, Gly8 linker, switch III deleted, G49D E50N A249D S252D L272D) MGHHHHHHANKKIEKQLQKDKQVYRATHRLLLLGADNSGKSTIVKQMRILHGGGGGGGGTSGIFETKFQVDKVNFHMFDVGGQRDERRKWIQCFNDVTAIIFVVDSSDYNRLQEALNDFKSIWNNRWLRTISVILFLNKQDLLAEKVLAGKSKIEDYFPEFARYTTPEDATPEPGEDPRVTRAKYFIRDEFLRISTASGDGRHYCYPHFTCAVDTENIRRVFNDCRDIIQRMHLRQYELL | 72.5 ± 0.0 (n = 3) ° C. |
| Mini Gs254: mini Gs199 with M60A (protein, MINI GS254, mini Gs199 with M60A) MGHHHHHHANKKIEKQLQKDKQVYRATHRLLLLGADNSGKSTIVKQARILHGGGGGGGGTSGIFETKFQVDKVNFHMFDVGGQRDERRKWIQCFNDVTAIIFVVDSSDYNRLQEALNDFKSIWNNRWLRTISVILFLNKQDLLAEKVLAGKSKIEDYFPEFARYTTPEDATPEPGEDPRVTRAKYFIRDEFLRISTASGDGRHYCYPHFTCAVDTENIRRVFNDCRDIIQRMHLRQYELL | 70.3 ± 0.0 (n = 3) ° C. |
| Mini Gs345: mini Gs199 with I372A-V375I; detergent stabilised construct (protein, MINI GS345, mini Gs199 with I372A-V375I; detergent stabilised construct) MGHHHHHHANKKIEKQLQKDKQVYRATHRLLLLGADNSGKSTIVKQMRILHGGGGGGGGTSGIFETKFQVDKVNFHMFDVGGQRDERRKWIQCFNDVTAIIFVVDSSDYNRLQEALNDFKSIWNNRWLRTISVILFLNKQDLLAEKVLAGKSKIEDYFPEFARYTTPEDATPEPGEDPRVTRAKYFIRDEFLRISTASGDGRHYCYPHFTCAVDTENARRIFNDCRDIIQRMHLRQYELL | 65.4 ± 0.1 (n = 3) ° C. |
| Mini Gs340: mini Gs199 with I372A (protein, MINI GS340, mini Gs199 with I372A) MGHHHHHHANKKIEKQLQKDKQVYRATHRLLLLGADNSGKSTIVKQMRILHGGGGGGGGTSGIFETKFQVDKVNFHMFDVGGQRDERRKWIQCFNDVTAIIFVVDSSDYNRLQEALNDFKSIWNNRWLRTISVILFLNKQDLLAEKVLAGKSKIEDYFPEFARYTTPEDATPEPGEDPRVTRAKYFIRDEFLRISTASGDGRHYCYPHFTCAVDTENARRVFNDCRDIIQRMHLRQYELL | 66.6 ± 0.1 (n = 3) ° C. |
| Mini Gs352: mini Gs199 with L63Y-I372A (protein, MINI GS352, mini Gs199 with L63Y-I372A) MGHHHHHHANKKIEKQLQKDKQVYRATHRLLLLGADNSGKSTIVKQMRIYHGGGGGGGGTSGIFETKFQVDKVNFHMFDVGGQRDERRKWIQCFNDVTAIIFVVDSSDYNRLQEALNDFKSIWNNRWLRTISVILFLNKQDLLAEKVLAGKSKIEDYFPEFARYTTPEDATPEPGEDPRVTRAKYFIRDEFLRISTASGDGRHYCYPHFTCAVDTENARRVFNDCRDIIQRMHLRQYELL | 64.7 ± 0.1 (n = 3) ° C. |
| Mini GS303: mini Gs199 with V375I (protein, MINI GS303, mini Gs199 with V375I) MGHHHHHHANKKIEKQLQKDKQVYRATHRLLLLGADNSGKSTIVKQMRILHGGGGGGGGTSGIFETKFQVDKVNFHMFDVGGQRDERRKWIQCFNDVTAIIFVVDSSDYNRLQEALNDFKSIWNNRWLRTISVILFLNKQDLLAEKVLAGKSKIEDYFPEFARYTTPEDATPEPGEDPRVTRAKYFIRDEFLRISTASGDGRHYCYPHFTCAVDTENIRRIFNDCRDIIQRMHLRQYELL | 70.3 ± 0.0 (n = 3) ° C. |
| Mini Gs350: mini Gs199 with L63Y (protein, MINI GS350, mini Gs199 with L63Y) MGHHHHHHANKKIEKQLQKDKQVYRATHRLLLLGADNSGKSTIVKQMRIYHGGGGGGGGTSGIFETKFQVDKVNFHMFDVGGQRDERRKWIQCFNDVTAIIFVVDSSDYNRLQEALNDFKSIWNNRWLRTISVILFLNKQDLLAEKVLAGKSKIEDYFPEFARYTTPEDATPEPGEDPRVTRAKYFIRDEFLRISTASGDGRHYCYPHFTCAVDTENIRRVFNDCRDIIQRMHLRQYELL | 70.7 ± 0.0 (n = 3) ° C. |
| Mini Gs162: mini Gs161 with A249D (protein, MINI GS162, mini Gs161 with A249D) MGHHHHHHANKKIEKQLQKDKQVYRATHRLLLLGAGESGKSTIVKQMRILHGGGGGETKFQVDKVNFHMFDVGGQRDERRKWIQCFNDVTAIIFVVDSSSYNMVIREDNQTNRLQEALNLFKSIWNNRWLRTISVILFLNKQDLLAEKVLAGKSKIEDYFPEFARYTTPEDATPEPGEDPRVTRAKYFIRDEFLRISTASGDGRHYCYPHFTCAVDTENIRRVFNDCRDIIQRMHLRQYELL | 60.6 ± 0.1 (n = 3) ° C. |
| Gαs: purified non-lipidated Gαs subunit (protein, UniProt P63092 2-394, looked up, non-lipidated, purified non-lipidated Gαs subunit) Guanine nucleotide-binding …: GCLGNSKTEDQRNEEKAQREANKKIEKQLQKDKQVYRATHRLLLLGAGESGKSTIVKQMRILHVNGFNGEGGEEDPQAARSNSDGEKATKVQDIKNNLKEAIETIVAAMSNLVPPVELANPENQFRVDYILSVMNVPDFDFPPEFYEHAKALWEDEGVRACYERSNEYQLIDCAQYFLDKIDVIKQADYVPSDQDLLRCRVLTSGIFETKFQVDKVNFHMFDVGGQRDERRKWIQCFNDVTAIIFVVASSSYNMVIREDNQTNRLQEALNLFKSIWNNRWLRTISVILFLNKQDLLAEKVLAGKSKIEDYFPEFARYTTPEDATPEPGEDPRVTRAKYFIRDEFLRISTASGDGRHYCYPHFTCAVDTENIRRVFNDCRDIIQRMHLRQYELL | 50.1 ± 0.1 (n = 3) ° C. |
| Mini Gs164: A249D and switch III deletion (protein, MINI GS164, A249D and switch III deletion) MGHHHHHHANKKIEKQLQKDKQVYRATHRLLLLGAGESGKSTIVKQMRILHGGGGGETKFQVDKVNFHMFDVGGQRDERRKWIQCFNDVTAIIFVVDSSSYNRLQEALNLFKSIWNNRWLRTISVILFLNKQDLLAEKVLAGKSKIEDYFPEFARYTTPEDATPEPGEDPRVTRAKYFIRDEFLRISTASGDGRHYCYPHFTCAVDTENIRRVFNDCRDIIQRMHLRQYELL | 66.5 ± 0.0 (n = 3) ° C. |
| Mini Gs183: G49D-E50N-A249D-S252D-SIII-L272D (protein, MINI GS183, G49D-E50N-A249D-S252D-SIII-L272D) MGHHHHHHANKKIEKQLQKDKQVYRATHRLLLLGADNSGKSTIVKQMRILHGGGGGETKFQVDKVNFHMFDVGGQRDERRKWIQCFNDVTAIIFVVDSSDYNRLQEALNDFKSIWNNRWLRTISVILFLNKQDLLAEKVLAGKSKIEDYFPEFARYTTPEDATPEPGEDPRVTRAKYFIRDEFLRISTASGDGRHYCYPHFTCAVDTENIRRVFNDCRDIIQRMHLRQYELL | 72.5 ± 0.0 (n = 3) ° C. |
| Mini Gs165: A249D-S252D-SIII (protein, MINI GS165, A249D-S252D-SIII) MGHHHHHHANKKIEKQLQKDKQVYRATHRLLLLGAGESGKSTIVKQMRILHGGGGGETKFQVDKVNFHMFDVGGQRDERRKWIQCFNDVTAIIFVVDSSDYNRLQEALNLFKSIWNNRWLRTISVILFLNKQDLLAEKVLAGKSKIEDYFPEFARYTTPEDATPEPGEDPRVTRAKYFIRDEFLRISTASGDGRHYCYPHFTCAVDTENIRRVFNDCRDIIQRMHLRQYELL | 68.7 ± 0.0 (n = 3) ° C. |
| Mini Gs169: A249D-S252D-SIII- (mutation list truncated in table) (protein, MINI GS169) MGHHHHHHANKKIEKQLQKDKQVYRATHRLLLLGAGESGKSTIVKQMRILHGGGGGETKFQVDKVNFHMFDVGGQRDERRKWIQCFNDVTAIIFVVDSSDYNRLQEALNDFKSIWNNRWLRTISVILFLNKQDLLAEKVLAGKSKIEDYFPEFARYTTPEDATPEPGEDPRVTRAKYFIRDEFLRISTASGDGRHYCYPHFTCAVDTENIRRVFNDCRDIIQRMHLRQYELL | 67.1 ± 0.0 (n = 3) ° C. |

Same assay, conditions: DSF

| Molecule | less stable than mini-Gs by |
| --- | --- |
| Mini-Gi146: mini-Gi1 construct 46: N-terminus re-inserted, D249 back to Leu, G217D; SEQ ID NO:110 (protein, Mini-Gi146) MGHHHHHHENLYFQGTLSAEDKAAVERSKMIDRNLREDGEKAAREVKLLLLGADNSGKSTIVKQMKIIHGGGGGGGGTTGIVETHFTFKDLHFKMFDVGGQRSERKKWIHCFEDVAAIIFCVDLSDYNRMHESMKLFDSICNNKWFTDTSIILFLNKKDLFEEKIKKSPLTICYQEYAGSNTYEEAAAYIQCQFEDLNKRKDTKEIYTHFTCATDTKNAQFIFDAVTDVIIKNNLKDCGLF | 17 °C |

Same assay, conditions: mini-G protein alone, GDP-bound

| Molecule | Stability measured by DSF |
| --- | --- |
| Mini Gs399: mini Gs393 with N-terminal residues 6-25 replaced and L272D reversed; binds Gβγ (protein, MINI GS399) MGHHHHHHENLYFQGNSKTEDQRNEEKAQREANKKIEKQLQKDKQVYRATHRLLLLGADNSGKSTIVKQMRILHGGSGGSGGTSGIFETKFQVDKVNFHMFDVGGQRDERRKWIQCFNDVTAIIFVVDSSDYNRLQEALNLFKSIWNNRWLRTISVILFLNKQDLLAEKVLAGKSKIEDYFPEFARYTTPEDATPEPGEDPRVTRAKYFIRDEFLRISTASGDGRHYCYPHFTCAVDTENARRIFNDCRDIIQRMHLRQYELL | 71.6 ± 0.0 °C |
| Mini-Gi146: mini-Gi1 construct 46: N-terminus re-inserted, D249 back to Leu, G217D; SEQ ID NO:110 (protein, Mini-Gi146) MGHHHHHHENLYFQGTLSAEDKAAVERSKMIDRNLREDGEKAAREVKLLLLGADNSGKSTIVKQMKIIHGGGGGGGGTTGIVETHFTFKDLHFKMFDVGGQRSERKKWIHCFEDVAAIIFCVDLSDYNRMHESMKLFDSICNNKWFTDTSIILFLNKKDLFEEKIKKSPLTICYQEYAGSNTYEEAAAYIQCQFEDLNKRKDTKEIYTHFTCATDTKNAQFIFDAVTDVIIKNNLKDCGLF | 48 °C |

Same assay, conditions: mini-G protein alone, GDP-bound; listed as Gs/i1 46

| Molecule | Stability measured by DSF |
| --- | --- |
| Mini-Gi146: mini-Gi1 construct 46: N-terminus re-inserted, D249 back to Leu, G217D; SEQ ID NO:110 (protein, Mini-Gi146) MGHHHHHHENLYFQGTLSAEDKAAVERSKMIDRNLREDGEKAAREVKLLLLGADNSGKSTIVKQMKIIHGGGGGGGGTTGIVETHFTFKDLHFKMFDVGGQRSERKKWIHCFEDVAAIIFCVDLSDYNRMHESMKLFDSICNNKWFTDTSIILFLNKKDLFEEKIKKSPLTICYQEYAGSNTYEEAAAYIQCQFEDLNKRKDTKEIYTHFTCATDTKNAQFIFDAVTDVIIKNNLKDCGLF | 47.8 ± 0.3 °C |

From patent US11339383B2, “G proteins” (HEPTARES THERAPEUTICS LIMITED, priority 2016, dated 2022)
